Results on 15 molecules are retold here after article PMC7545097, “Mapping the native interaction surfaces of PREP1 with PBX1 by cross-linking mass-spectrometry and mutagenesis” (Scientific Reports, 2020).

Positions count from the first letter of the chain named. Names may count otherwise. Where two headings read alike, the source gives them in different places.

Experiment in all cases: time-resolved fluorescence immunoassay (TR-FIA); plate coated with monoclonal anti-PBX1; PBX1 pre-incubated with PREP1 or MEIS1 for 1 h on ice, 10 µg/mL in 1% BSA PBS, 1 h at room temperature on the plate; detected with anti-PREP1 or biotinylated anti-MEIS1/2 and Eu^3+ conjugates; normalised to the wild-type protein taken as 1
Assay [1] concerns the target T1, PBX1_(1-430), wild-type recombinant (human, UniProt P40424 1-430).
T1 construct: also called wild-type PBX1; purified recombinant human PBX1; source: E. coli, purified
T1 sequence (looked up): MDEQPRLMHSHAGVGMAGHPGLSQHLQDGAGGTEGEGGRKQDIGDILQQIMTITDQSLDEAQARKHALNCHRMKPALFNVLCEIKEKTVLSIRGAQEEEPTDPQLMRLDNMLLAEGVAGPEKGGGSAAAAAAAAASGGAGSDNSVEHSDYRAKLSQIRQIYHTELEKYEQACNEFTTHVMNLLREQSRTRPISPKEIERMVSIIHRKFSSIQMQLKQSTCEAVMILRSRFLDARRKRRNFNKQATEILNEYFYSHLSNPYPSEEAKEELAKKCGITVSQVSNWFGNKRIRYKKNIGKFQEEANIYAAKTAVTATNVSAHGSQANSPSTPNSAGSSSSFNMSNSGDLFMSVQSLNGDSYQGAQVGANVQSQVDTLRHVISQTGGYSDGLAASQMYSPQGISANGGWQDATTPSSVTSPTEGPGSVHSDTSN

The target in a further assay is PBX1Δ197-204 (human) (UniProt P40424).
For a further assay, the target named is T2, PBX1 Δ105-113 (human, UniProt P40424 1-430, Δ105-113).
T2 construct: PBX1, residues 1-430, with an internal deletion; source: E. coli, purified
T2 sequence (looked up): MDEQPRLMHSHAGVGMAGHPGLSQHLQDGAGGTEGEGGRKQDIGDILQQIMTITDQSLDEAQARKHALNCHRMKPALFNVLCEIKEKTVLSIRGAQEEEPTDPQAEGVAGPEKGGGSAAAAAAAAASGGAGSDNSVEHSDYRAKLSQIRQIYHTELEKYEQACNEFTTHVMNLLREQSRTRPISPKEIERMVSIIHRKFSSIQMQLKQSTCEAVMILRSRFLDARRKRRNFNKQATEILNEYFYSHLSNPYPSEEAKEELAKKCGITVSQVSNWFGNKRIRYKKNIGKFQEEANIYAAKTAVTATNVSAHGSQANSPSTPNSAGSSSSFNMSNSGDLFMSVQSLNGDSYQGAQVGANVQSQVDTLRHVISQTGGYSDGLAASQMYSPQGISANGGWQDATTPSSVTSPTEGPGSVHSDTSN
Particulars: both partners purified.

Another assay addresses T3, PBX1 Δ77-84 (human, UniProt P40424 1-430, Δ77−84).
T3 construct: PBX1, residues 1-430, with an internal deletion; source: E. coli, purified
T3 sequence (looked up): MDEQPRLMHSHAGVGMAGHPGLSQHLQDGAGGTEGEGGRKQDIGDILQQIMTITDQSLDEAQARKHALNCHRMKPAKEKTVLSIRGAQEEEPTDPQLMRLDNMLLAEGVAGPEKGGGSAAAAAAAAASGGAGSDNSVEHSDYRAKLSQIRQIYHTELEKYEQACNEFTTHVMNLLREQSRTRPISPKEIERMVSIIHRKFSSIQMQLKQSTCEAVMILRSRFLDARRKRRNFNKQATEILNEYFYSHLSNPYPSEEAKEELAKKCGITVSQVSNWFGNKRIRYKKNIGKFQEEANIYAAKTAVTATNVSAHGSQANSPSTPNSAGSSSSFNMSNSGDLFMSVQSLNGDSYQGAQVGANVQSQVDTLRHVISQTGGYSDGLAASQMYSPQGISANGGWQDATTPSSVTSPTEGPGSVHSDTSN
Particulars: both partners purified.

The target in a further assay is T4, PBX1Δ43-55 (human, UniProt P40424 1-430, Δ43-55).
T4 construct: PBX1, residues 1-430, with an internal deletion; source: E. coli, purified
T4 sequence (looked up): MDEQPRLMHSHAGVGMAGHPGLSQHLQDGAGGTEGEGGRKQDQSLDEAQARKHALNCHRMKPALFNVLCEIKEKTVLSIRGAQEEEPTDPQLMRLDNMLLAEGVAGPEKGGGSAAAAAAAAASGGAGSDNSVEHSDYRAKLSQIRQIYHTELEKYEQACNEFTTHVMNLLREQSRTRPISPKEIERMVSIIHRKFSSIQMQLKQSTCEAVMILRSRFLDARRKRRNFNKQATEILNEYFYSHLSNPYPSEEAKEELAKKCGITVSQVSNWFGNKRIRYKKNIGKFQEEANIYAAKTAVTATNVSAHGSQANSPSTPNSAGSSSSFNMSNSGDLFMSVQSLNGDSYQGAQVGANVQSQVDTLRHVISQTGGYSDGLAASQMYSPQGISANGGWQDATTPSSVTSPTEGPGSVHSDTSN
Particulars: both partners purified.

Assay [2] concerns the target T5, PREP1_(1-436), wild-type recombinant (TR-FIA) (UniProt P55347 1-436).
T5 construct: also called wild-type PREP1; PKNOX1; source: E. coli, purified
T5 sequence (looked up): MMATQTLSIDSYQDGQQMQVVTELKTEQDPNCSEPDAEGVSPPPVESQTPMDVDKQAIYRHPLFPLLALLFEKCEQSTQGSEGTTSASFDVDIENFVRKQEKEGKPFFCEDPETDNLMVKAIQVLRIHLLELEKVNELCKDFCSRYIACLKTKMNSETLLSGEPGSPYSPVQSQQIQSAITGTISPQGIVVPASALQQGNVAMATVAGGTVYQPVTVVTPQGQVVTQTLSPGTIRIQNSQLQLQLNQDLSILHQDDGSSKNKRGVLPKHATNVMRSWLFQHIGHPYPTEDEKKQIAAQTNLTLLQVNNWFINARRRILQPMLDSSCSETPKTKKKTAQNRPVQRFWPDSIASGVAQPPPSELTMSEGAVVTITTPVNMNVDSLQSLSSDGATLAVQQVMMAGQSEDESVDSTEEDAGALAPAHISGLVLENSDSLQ
To be noted: both partners purified.

As for “PREP1 HR2m (I122A/L125A/L129A/L132A), TR-FIA (from UniProt P55347 1-436) (natural protein)”, the binding relative to wild type in assay [1] is 30%.

B1: MEIS1_(1-390), wild-type recombinant (TR-FIA) (natural protein, UniProt O00470 1-390, looked up)
chain: MAQRYDDLPHYGGMDGVGIPSTMYGDPHAARSMQPVHHLNHGPPLHSHQYPHTAHTNAMAPSMGSSVNDALKRDKDAIYGHPLFPLLALIFEKCELATCTPREPGVAGGDVCSSESFNEDIAVFAKQIRAEKPLFSSNPELDNLMIQAIQVLRFHLLELEKVHELCDNFCHRYISCLKGKMPIDLVIDDREGGSKSDSEDITRSANLTDQPSWNRDHDDTASTRSGGTPGPSSGGHTSHSGDNSSEQGDGLDNSVASPSTGDDDDPDKDKKRHKKRGIFPKVATNIMRAWLFQHLTHPYPSEEQKKQLAQDTGLTILQVNNWFINARRRIVQPMIDQSNRAVSQGTPYNPDGQPMGGFVMDGQQHMGIRAPGPMSGMGMNMGMEGQWHYM
notes: MEIS1, full length, residues 1-390; also called wild-type MEIS1; source: E. coli, purified
For B1, the binding relative to wild type in the assay with PBX1Δ197-204 (human) stood at 45%; in the assay with PBX1 Δ77-84, 35%; with PBX1Δ43-55, 60%. In the assay with PBX1 Δ105-113, the binding result is “binds”.

B2: PBX1 I84A (natural protein, human, UniProt P40424 1-430, looked up)
chain: T1 sequence (looked up) with I84A
notes: PBX1, residues 1-430; source: E. coli, purified
Consider B2, for which, in assay [2], the binding result is “binds”.

B3: PBX1 L77A/V80A/L81A (natural protein, human, UniProt P40424 1-430, looked up)
chain: T1 sequence (looked up) with L77A, V80A, L81A
notes: as for B2
For B3, the binding result in assay [2] is given as “binds”.

B4: PREP1 L132A (natural protein, UniProt P55347 1-436, looked up)
chain: T5 sequence (looked up) with L132A
notes: PREP1 (PKNOX1), residues 1-436
For the molecule B4, the “binding relative to wild type” value in assay [1] (both partners purified) came out at 40%.

B5: PBX1 L77A/V80A (natural protein, human, UniProt P40424 1-430, looked up)
chain: T1 sequence (looked up) with L77A, V80A
notes: as for B2
Consider B5, for which the binding result in assay [2] is “binds”.

B6: PBX1 L105A (natural protein, human, UniProt P40424 1-430, looked up)
chain: T1 sequence (looked up) with L105A
notes: PBX1, residues 1-430; single alanine substitution; source: E. coli, purified
As to B6, in assay [2], the binding result is “binds”.

B7: PBX1 L77A/I84A (natural protein, human, UniProt P40424 1-430, looked up)
chain: T1 sequence (looked up) with L77A, I84A
notes: as for B2
Consider B7, for which the binding result in assay [2] was “binds”.

B8: PBX1 L105A/L108A (natural protein, human, UniProt P40424 1-430, looked up)
chain: T1 sequence (looked up) with L105A, L108A
notes: as for B2
On to B8, for which the binding result in assay [2] is “binds”.

B9: PBX1 L81A (natural protein, human, UniProt P40424 1-430, looked up)
chain: T1 sequence (looked up) with L81A
notes: as for B2
B9: the binding result in assay [2] is “binds”.

B10: PBX1 V80A (natural protein, human, UniProt P40424 1-430, looked up)
chain: T1 sequence (looked up) with V80A
notes: as for B2
Consider B10, for which the binding result in assay [2] is “binds”.

B11: PBX1 L112A (natural protein, human, UniProt P40424 1-430, looked up)
chain: T1 sequence (looked up) with L112A
notes: as for B6
In the case of B11, the binding result in assay [2] is given as “binds”.

B12: PBX1 L105A/L108A/L112A (natural protein, human, UniProt P40424 1-430, looked up)
chain: T1 sequence (looked up) with L105A, L108A, L112A
notes: as for B2
As for B12, the binding result in assay [2] was “binds”.

B13: PBX1 L108A (natural protein, human, UniProt P40424 1-430, looked up)
chain: T1 sequence (looked up) with L108A
notes: as for B6
With B13, the binding result in assay [2] was “binds”.

B14: PBX1 V80A/L81A (natural protein, human, UniProt P40424 1-430, looked up)
chain: T1 sequence (looked up) with V80A, L81A
notes: as for B2
For B14, in assay [2], the binding result was “binds”.
